Assay results from patent publication US20080261906.
Changes are numbered by the printed parent chain. Numbers in names are those of the source.

Legend:
[1] = target: other Rabs and Arfs of the panel (27 mammalian Rabs and several different ARFs were tested)
[2] = target: Rab1 GTPase (GTP-loaded, purified)

B1: TBC1D20 with a 6xHIS N-terminal tag (bacterially expressed, pDEST-17) (protein)
chain: MALRSAQGDGPTSGHWDGGAEKADFNAKRKKKVAEIHQALNSDPTDVAALRRMAISEGGLLTDEIRRKVWPKLLNVNANDPPPISGKNLRQMSKDYQQVLLDVRRSLRRFPPGMPEEQREGLQEELIDIILLILERNPQLHYYQGYHDIVVTFLLVVGERLATSLVEKLSTHHLRDFMDPTMDNTKHILNYLMPIIDQVNPELHDFMQSAEVGTIFALSWLITWFGHVLSDFRHVVRLYDFFLACHPLMPIYFAAVIVLYREQEVLDCDCDMASVHHLLSQIPQDLPYETLISRAGDLFVQFPPSELAREAAAQQQAERTAASTFKDFELASAQQRPDMVLRQRFRGLLRPEDRTKDVLTKPRTNRFVKLAVMGLTVALGAAALAVVKSALEWAPKFQLQLFP
catalytic efficiency relative to the intrinsic rate constant for GTP hydrolysis [1]: Note that only Rab1 displays significant activation by TBC1D20
catalytic efficiency (kcat/Km) of GAP-accelerated GTP hydrolysis [2]: Activation of Rab1GTP hydrolysis by TBC1D20 has an apparent catalytic efficiency (kcat/Km) of 360 M^-1s^-1

B2: mutant TBC1D20 (R66A, R105A), 6xHIS N-terminal tag, bacterially expressed (protein)
chain: B1 chain with R66A, R105A
kinetics of Rab1 GTP hydrolysis (GAP assay) [2]: the GTPase activating activity of TBC1D20 on Rab1 was abolished when these conserved arginine residues were mutated to alanine
